The source of these data is the supplement of paper PMC6755084.

To fix the notation:
B1: F1*; the commonest letter at each place (parent)
chain: GAGACCGCAACTGAAAAGTTGTTATCACTTGTCGTAAGACACTTTGGATGGGTTGAAGTTCTGCACGTAGAAGCAAAAGGC

Variants of B1 are the subject of this data set. Put plainly: fraction ligated after 30 min (ligated reads / total reads); higher = more ligase activity. The following applies: with F1*sub RNA substrate (template-directed ligation), 42 °C. In a few lines: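 Oligo-pool templates of ligase ribozyme variants were PCR-amplified, T7-transcribed and gel-purified. Ligated and unligated bands were gel-separated, reverse transcribed with barcoded primers, and MiSeq-sequenced; core bases were filtered at quality ≥20. Fraction ligated per variant was ligated reads over total reads.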
Take GAGACCGCAACTGAAAAGTTGTTATGACTTGTCGTAAGCCACTTTGGATGGGTTGAAGTTCTGCACGTAGAAGCAAAAGGC [C26G A39C]: the fraction ligated came to 0.123.

For GAGACCGCAACTGAAAAGTTGTTATCACTTGTCGTAAGACTCGTTGGATGGGTTGAAGTTCTGCACGTAGAAGCAAAAGGC [A41T T43G], the fraction ligated worked out at 0.803. Then GAGACCGCAACTGAAAAGTTGTTATCACTTGTAGTAAGACACTTTGGATGGGTTGAGGTTCTGCACGTAGAAGCAAAAGGC [C33A A57G], with 0.868; and GAGACCGCAACTGAAAAGTTGTTAGCACTTGTCGTAAGACACTTTGGATGGGTTGTAGTTCTGCACGTAGAAGCAAAAGGC [T25G A56T], with 0.0925; and GAGACCGCAACTGAAAAGTTGTTATCACTTGTCGTAAGACACTTTGGATGGGTTGAAGTTCTGCACGTAGAAGCAAAAGGC [unchanged], with 0.826. With GAGACCGCAACTGAAAAGTTGTTATCACTTATCGTAAGACACTTTGGACGGGTTGAAGTTCTGCACGTAGAAGCAAAAGGC [G31A T49C] the figure was 0.136; with GAGACCGCAACTGAAAAGTTGTTACCACTTGTCGTAAGACACTTTGGATCGGTTGAAGTTCTGCACGTAGAAGCAAAAGGC [T25C G50C], 0.379. With GAGACCGCAACTGAAAAGTTGTTATCACTTGTCGTAAGACACTTTGGAACGGTTGAAGTTCTGCACGTAGAAGCAAAAGGC [T49A G50C] the figure was 0.502. Turning to GAGACCGCAACTGAAAAGTTGTCATCACTTGTCCTAAGACACTTTGGATGGGTTGAAGTTCTGCACGTAGAAGCAAAAGGC [T23C G34C], the fraction ligated stood at 0.774.

For the variant GAGACCGCAACTGAAAAGTTGTTATCACTTGTCGAAAGACAATTTGGATGGGTTGAAGTTCTGCACGTAGAAGCAAAAGGC [T35A C42A], the fraction ligated was 0.845. As for GAGACCGCAACTGAAAAGTTGTTATCACTTGTCGTAAGACAGTCTGGATGGGTTGAAGTTCTGCACGTAGAAGCAAAAGGC [C42G T44C], the fraction ligated came to 0.851.

For GAGACCGCAACTGAAAAGTTGTTATCCCTTGTCGTAAGACACTTTGAATGGGTTGAAGTTCTGCACGTAGAAGCAAAAGGC [A27C G47A], the fraction ligated turned out to be 0.799. Take GAGACCGCAACTGAAAAGTTGTAATCACTTGTCGTAAGACACTTTGGGTGGGTTGAAGTTCTGCACGTAGAAGCAAAAGGC [T23A A48G]: the fraction ligated was determined as 0.596.

With GAGACCGCAACTGAAAAGTTGTTATCACTTGTCGTAAAACACCTTGGATGGGTTGAAGTTCTGCACGTAGAAGCAAAAGGC [G38A T43C], the fraction ligated was determined as 0.816.

In the case of GAGACCGCAACTGAAAAGTTGTTATCACTTGTCCTAAGACACTTTGGATGGGTTGGAGTTCTGCACGTAGAAGCAAAAGGC [G34C A56G], the fraction ligated worked out at 0.794. Then GAGACCGCAACTGAAAAGTTGTTATAACTTGTCGTAATACACTTTGGATGGGTTGAAGTTCTGCACGTAGAAGCAAAAGGC [C26A G38T], with 0.793; and GAGACCGCAACTGAAAAGTTGTTATCAATTGTCGTAAGACACTTGGGATGGGTTGAAGTTCTGCACGTAGAAGCAAAAGGC [C28A T45G], with 0.0334.

GAGACCGCAACTGAAAAGTTGTTATCACTTGTCGTAACACAGTTTGGATGGGTTGAAGTTCTGCACGTAGAAGCAAAAGGC [G38C C42G]: the fraction ligated was found to be 0.843. With GAGACCGCAACTGAAAAGTTGTTATCACTTGTCGTAATACACTCTGGATGGGTTGAAGTTCTGCACGTAGAAGCAAAAGGC [G38T T44C] the figure was 0.831.

For the variant GAGACCGCAACTGAAAAGTTGTTATCACTCGTCGTAAGACACTTTGAATGGGTTGAAGTTCTGCACGTAGAAGCAAAAGGC [T30C G47A], the fraction ligated turned out to be 0.798. Then GAGACCGCAACTGAAAAGTTGTTAGCACTTGTCGTAAGACACTTTGGATGGGTTGAAGTTCTGCACGTAGAAGCAAAAGGC [T25G], with 0.784.

On to GAGACCGCAACTGAAAAGTTGTTATCCCTTGTCGTGAGACACTTTGGATGGGTTGAAGTTCTGCACGTAGAAGCAAAAGGC [A27C A36G], for which the fraction ligated turned out to be 0.821. Then GAGACCGCAACTGAAAAGTTGTTATAACTTGTCGTTAGACACTTTGGATGGGTTGAAGTTCTGCACGTAGAAGCAAAAGGC [C26A A36T], with 0.823; and GAGACCGCAACTGAAAAGTTGTTATCACTTGTCTTAAGACACTTTGGATGGGTTGAGGTTCTGCACGTAGAAGCAAAAGGC [G34T A57G], with 0.84; and GAGACCGCAACTGAAAAGTTGTTATCACTTGTCGTAAGACATTTGGGATGGGTTGAAGTTCTGCACGTAGAAGCAAAAGGC [C42T T45G], with 0.557. Take GAGACCGCAACTGAAAAGTTGTTATCCCTTGTCGTAAGGCACTTTGGATGGGTTGAAGTTCTGCACGTAGAAGCAAAAGGC [A27C A39G]: the fraction ligated was 0.809. With GAGACCGCAACTGAAAAGTTGTTAACACTTGTCGTAAGACACTTTAGATGGGTTGAAGTTCTGCACGTAGAAGCAAAAGGC [T25A G46A] the figure was 0.279; with GAGACCGCAACTGAAAAGTTGTTATCACTTGTCGTAAGCCACTTTGCATGGGTTGAAGTTCTGCACGTAGAAGCAAAAGGC [A39C G47C], 0.349; with GAGACCGCAACTGAAAAGTTGTTATCACTTATCGTAAGACAGTTTGGATGGGTTGAAGTTCTGCACGTAGAAGCAAAAGGC [G31A C42G], 0.818. Then GAGACCGCAACTGAAAAGTTGTTATCACTTGGCGTAAGACACTTTGGCTGGGTTGAAGTTCTGCACGTAGAAGCAAAAGGC [T32G A48C], with 0.401. Regarding GAGACCGCAACTGAAAAGTTGTTTTCACTTGGCGTAAGACACTTTGGATGGGTTGAAGTTCTGCACGTAGAAGCAAAAGGC [A24T T32G], the fraction ligated is 0.372. Then GAGACCGCAACTGAAAAGTTGTTATCACTTGTCGTAAAACACTTTGGACGGGTTGAAGTTCTGCACGTAGAAGCAAAAGGC [G38A T49C], with 0.245; and GAGACCGCAACTGAAAAGTTGTTATCACTTGTCGTAAGACACTTTGGCTGGGTTGACGTTCTGCACGTAGAAGCAAAAGGC [A48C A57C], with 0.714. Turning to GAGACCGCAACTGAAAAGTTGTTATCACTTGTCGTAAGAAACTTTGGATGGGTTCAAGTTCTGCACGTAGAAGCAAAAGGC [C40A G55C], the fraction ligated came to 0.504.
